Test results from patent publication US10973880B2, “Compositions and methods for treating pulmonary hypertension” (Acceleron Pharma Inc., priority 2016, dated 2021).

Legend:
activin A [1] = biological target: T1, activin A (Homo sapiens, UniProt P08476); test: A-204 reporter gene assay, pGL3(CAGA)12 luciferase; type: cell-based; settings: Example 13
T1 sequence (P08476 311-426): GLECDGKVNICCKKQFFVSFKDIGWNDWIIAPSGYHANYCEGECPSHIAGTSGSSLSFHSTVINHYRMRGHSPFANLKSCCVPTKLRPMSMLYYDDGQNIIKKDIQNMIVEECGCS
Text: An A-204 reporter gene assay was used to evaluate the effects of ActRIIB-Fc proteins and GDF traps on signaling by GDF-11 and activin A. Cell line: human rhabdomyosarcoma (derived from muscle). Reporter vector: pGL3(CAGA)12 (described in Dennler et al, 1998, EMBO 17: 3091-3100). The CAGA12 motif is present in TGF-beta responsive genes (e.g., PAI-1 gene), so this vector is of general use for factors signaling through SMAD2 and 3.
Day 1: Split A-204 cells into 48-well plate.
Day 2: A-204 cells transfected with 10 ug pGL3(CAGA)12 or pGL3(CAGA)12(10 ug)+pRLCMV (1 μg) and Fugene.
Day 3: Add factors (diluted into medium+0.1% BSA). Inhibitors need to be preincubated with factors for 1 hr before adding to cells. Six hrs later, cells were rinsed with PBS and lysed.
This is followed by a luciferase assay.
In addition, an A-204 Reporter Gene Assay was used to evaluate the effects of ALK4-Fc:ActRIIB-Fc heterodimer and ActRIIB-Fc:ActRIIB-Fc homodimer on signaling by activin A, activin B, GDF11, GDF8, BMP10, and BMP9. Cell line: Human Rhabdomyosarcoma (derived from muscle). Reporter vector: pGL3(CAGA)12 (as described in Dennler et al, 1998, EMBO 17: 3091-3100). The CAGA12 motif is present in TGFβ responsive genes (PAI-1 gene), so this vector is of general use for factors signaling through Smad2 and 3. An exemplary A-204 Reporter Gene Assay is outlined below. • Day 1: Split A-204 cells into 48-well plate. • Day 2: A-204 cells transfected with 10 ug pGL3(CAGA)12 or pGL3(CAGA)12(10 ug)+pRLCMV (1 ug) and Fugene. • Day 3: Add factors (diluted into medium+0.1% BSA). Inhibitors need to be pre-incubated with Factors for about one hr before adding to cells. About six hrs later, cells are rinsed with PBS and then lysed.
Following the above steps, a Luciferase assay was performed.

BMP10 = biological target: T2, BMP10 (Homo sapiens, UniProt O95393); test: Biacore-based binding assay, receptor captured with anti-Fc antibody
T2 sequence (O95393 317-424): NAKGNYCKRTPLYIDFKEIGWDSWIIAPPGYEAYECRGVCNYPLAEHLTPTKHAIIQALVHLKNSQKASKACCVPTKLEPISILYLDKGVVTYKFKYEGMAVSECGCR
Protocol: (§1) A Biacore™-based binding assay was used to compare ligand binding selectivity of the ALK4-Fc:ActRIIB-Fc heterodimeric complex described above with that of ActRIIB-Fc and ALK4-Fc homodimer complexes. The ALK4-Fc:ActRIIB-Fc heterodimer, ActRIIB-Fc homodimer, and ALK4-Fc homodimer were independently captured onto the system using an anti-Fc antibody. Ligands were injected and allowed to flow over the captured receptor protein. Results are summarized in the table below, in which ligand off-rates (kd) most indicative of effective ligand traps are denoted in bold font.

GDF8 = biological target: T3, GDF8 (Homo sapiens, UniProt O14793); test: as above
T3 sequence (O14793 267-375): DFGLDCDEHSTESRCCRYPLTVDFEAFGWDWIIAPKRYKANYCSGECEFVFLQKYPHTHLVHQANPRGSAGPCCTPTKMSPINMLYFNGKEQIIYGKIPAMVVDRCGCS
Protocol: as §1

BMP6 = biological target: T4, BMP6 (Homo sapiens, UniProt P22004); test: as above
T4 sequence (P22004 375-513): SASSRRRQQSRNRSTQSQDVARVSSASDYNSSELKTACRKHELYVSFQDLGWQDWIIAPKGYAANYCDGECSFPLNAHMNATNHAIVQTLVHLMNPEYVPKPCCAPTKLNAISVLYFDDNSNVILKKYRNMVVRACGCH
Protocol: as §1

activin B = biological target: T5, activin B (Homo sapiens, UniProt P09529); test: as above
T5 sequence (P09529 293-407): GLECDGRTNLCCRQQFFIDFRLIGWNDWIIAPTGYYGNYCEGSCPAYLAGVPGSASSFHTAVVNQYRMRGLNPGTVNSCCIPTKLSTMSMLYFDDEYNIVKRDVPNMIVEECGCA
Protocol: as §1

GDF3 = biological target: T6, GDF3 (Homo sapiens, UniProt Q9NR23); test: as above
T6 sequence (Q9NR23 251-364): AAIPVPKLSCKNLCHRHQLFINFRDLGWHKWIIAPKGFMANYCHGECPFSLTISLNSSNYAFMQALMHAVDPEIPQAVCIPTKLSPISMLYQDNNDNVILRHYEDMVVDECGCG
Protocol: as §1

BMP9 = biological target: T7, BMP9 (Homo sapiens, UniProt Q9UK05); test: as above
T7 sequence (Q9UK05 320-429): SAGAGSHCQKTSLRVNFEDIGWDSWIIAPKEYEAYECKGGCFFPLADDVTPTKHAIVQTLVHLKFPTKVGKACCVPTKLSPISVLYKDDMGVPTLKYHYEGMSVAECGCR
Protocol: as §1

activin A [2] = biological target: T1, activin A; test: as above
Protocol: as §1

GDF11 = biological target: T8, GDF11 (Homo sapiens, UniProt O95390); test: as above
T8 sequence (O95390 299-407): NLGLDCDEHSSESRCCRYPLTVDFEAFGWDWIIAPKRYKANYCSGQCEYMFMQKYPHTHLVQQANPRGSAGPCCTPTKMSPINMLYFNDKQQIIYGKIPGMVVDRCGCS
Protocol: as §1

B1: ALK4-Fc:ActRIIB-Fc heterodimer: heteromeric complex of extracellular domains of human ActRIIB and human ALK4, each separately fused to an Fc domain with a linker (protein)
chain 1: SGPRGVQALLCACTSCLQANYTCETDGACMVSIFNLDGMEHHVRTCIPKVELVPAGKPFYCLSSEDLRNTHCCYTDYCNRIDLRVPSGHLKEPEHPSMWGPVE
chain 2: GRGEAETRECIYYNANWELERTNQSGLERCEGEQDKRLHCYASWRNSSGTIELVKKGCWLDDFNCYDRQECVATEENPQVYFCCCEGNFCNERFTHLPEAGGPEVTYEPPPTAPT
modifications: left off: a dimerising Fc or GST; small tags and cut ends
notes: heteromeric complex of extracellular domains of human ActRIIB and human ALK4, each separately fused to an Fc domain with a linker
Activin A [1]
  inhibition of activin A signaling: potent inhibitors
BMP10
  Kd: 0.074 nM
  ka, BMP10: 5.6e+07 M⁻¹ s⁻¹
  kd, BMP10: 0.0041 s⁻¹
GDF8
  ka, GDF8: 390000 M⁻¹ s⁻¹
  kd, GDF8: 0.00021 s⁻¹
GDF8; † = very low signal
  Kd: 0.55 nM
BMP6
  Kd: 2.7 nM
  ka, BMP6: 2e+06 M⁻¹ s⁻¹
  kd, BMP6: 0.0055 s⁻¹
Activin B
  Kd: 0.006 nM
  ka, Activin B: 7.1e+06 M⁻¹ s⁻¹
  kd, Activin B: 4e-05 s⁻¹
GDF3
  Kd: 4.9 nM
  ka, GDF3: 3.4e+06 M⁻¹ s⁻¹
  kd, GDF3: 0.017 s⁻¹
BMP9
  Kd: 3.4 nM
  ka, BMP9: Transient*
  kd, BMP9: Transient*
Activin A [2]
  ka, Activin A: 1.3e+07 M⁻¹ s⁻¹
  kd, Activin A: 0.00015 s⁻¹
GDF11
  ka, GDF11: 3.8e+07 M⁻¹ s⁻¹
  kd, GDF11: 0.00011 s⁻¹
GDF11; † = very low signal
  Kd: 0.003 nM
